Source: patent US9365620B2, “Methods for treating pain” (NoNO NC., priority 2008, dated 2016)

Target: N-type calcium channels (Mus musculus, UniProt O55017)
Format: cell-based, Swiss mice
Details: Tat-NR2B9c 100 μM, conotoxin 1 μM, FIG. 5A

“YGRKKRRQRRRKLSSIESDV [Tat-NR2B9c] (Synthetic peptide Tat-NR2B9c) [chimeric peptide of a standard tat peptide and …]” was tested, and the “additional inhibition of Ca^2+ current once N-channels are blocked by Omega conotoxin” value was “no additional inhibition”.
